Source: patent US20240084017A1 (ASCENDO BIOTECHNOLOGY, published 2024)
Positions count from the first letter of the chain named.

B1: anti-Mac-1 antibody clone DF4M-31 (antibody, human IgG4, V domains shown)
VH: EVQLVESGGGLVQPGGSLRLSCAASGFTFTSATMSWVRQAPGKGLEWVSIISPGGSETYYADSVKGRFTISRDNSKNTLYLQMNSLRAEDTAVYYCARGGDYPSYYMDPWGQGTLVTVSS
VL: DIQMTQSPSSLSASVGDRVTITCRASQSISNYLAWYQQKPGKAPKLLIYGTSSLQSGVPSRFSGSGSGTDFTLTISSLQPEDFATYYCQQGHQWPWTFGQGTKVEIK
B2: anti-Mac-1 antibody clone 25A06 (antibody, human IgG4, V domains shown)
VH: EVQLVESGGGLVQPGGSLRLSCAASGFTFSSYYMSWVRQAPGKGLEWVSTINYDGSEKDYADSVKGRFTISRDNSKNTLYLQMNSLRAEDTAVYYCARDRLGNYPWFDVWGQGTLVTVSS
VL: B1 VL with G50D, T51A, S52N, S53N, G91S, H92Y, Q93S, W96L
B3: anti-Mac-1 antibody clone DF4-22 (antibody, human IgG4, V domains shown)
VH: EVQLVESGGGLVQPGGSLRLSCAASGFTFTDYNVHWVRQAPGKGLEWVSGINSSGSETNYADSVKGRFTISRDNSKNTLYLQMNSLRAEDTAVYYCARDSVFKTVGGYDAVMDYWGQGTLVTVSS
VL: B1 VL with S30Y, S53T, Q89M, G91S, H92Y, Q93S, W94S, W96T
B4: anti-Mac-1 antibody clone 25A04 (antibody, human IgG4, V domains shown)
VH: EVQLVESGGGLVQPGGSLRLSCAASGFTFSFTAMHWVRQAPGKGLEWVSAIIYNGSEADYADSVKGRFTISRDNSKNTLYLQMNSLRAEDTAVYYCARANDYDHGCCDNYAMDYWGQGTLVTVSS
VL: DIQMTQSPSSLSASVGDRVTITCRASQGIGSYLYWYQQKPGKAPKLLIYDASNLQSGVPSRFSGSGSGTDFTLTISSLQPEDFATYYCMQHGGWPLTFGQGTKVEIK
B5: anti-Mac-1 antibody clone 24H01 (antibody, human IgG4, V domains shown)
VH: EVQLVESGGGLVQPGGSLRLSCAASGFTFNNYYMSWVRQAPGKGLEWVSIIYYDGSEADYADSVKGRFTISRDNSKNTLYLQMNSLRAEDTAVYYCARNKDIYSVYGMDYWGQGTLVTVSS
VL: B1 VL with G50A, S53N, G91A, H92N, Q93N, W94T, W96P
B6: anti-Mac-1 antibody clone 27D06 (antibody, human IgG4, V domains shown)
VH: QVKLQESGAEVVKPGASVKISCKASGYSFTDYNMNWVKQSNGKSLEWIGVINPNYGTTSYNQKFKGKATLTVDQSSSTAYMQLNSLTSEDSAVYYCARTYDYDGDAFAYWGQGTTVTVSS
VL: DIELTQSPALMSASPGEKVTMTCRASSSVSSNNLHWYQQKSGASPKLWIYSTSNLATGAPARFSGSGSGTSYSLTISSMEAEDAATYYCQQWNSNPPTFGGGTKLEIK
B7: anti-Mac-1 antibody clone 27A04 (antibody, human IgG4, V domains shown)
VH: B6 VH with E6Q, A9P, V11L
VL: DIELTQSPAIMSASPGEKVTMTCSASSSVSYMHWYQQKSGTSPKRWIYDTSKLASGVPARFSGSGSGTSYSLTISSMEAEDAATYYCQQWSSNPPTFGAGTKLELK
B8: anti-Mac-1 antibody clone 27A06 (antibody, human IgG4, V domains shown)
VH: QVKLQQSGPELVTPGASVKISCKPSGYSFTDYNMNWVKQSNGKSLEWIGEINPNYGTTRHNQKFKGKASLTVDQSSSTAYMQLISLTSEDSAVYYCARTYDYDEDAFAYWGQGTTVTVSS
VL: B7 VL with G40D
B9: anti-Mac-1 antibody clone 27G04 (antibody, human IgG4, V domains shown)
VH: B6 VH with A9P, V11L, Y100F, G104D
VL: B7 VL with M21I, Y31D, S76N
B10: anti-Mac-1 antibody clone 28E07 (antibody, human IgG4, V domains shown)
VH: QVQLQQSGPELVKPGASVKISCKASGYSFTDYNMNWVKQSNGKSLEWIGEINPGYGTSRYNQKFKDKATLTVDQSSTTAYMQLNSLTSEDSAVYYCARADVDYGDVMDYWGQGTTVTVSS
VL: B7 VL with A59T
B11: anti-Mac-1 antibody clone 28A12 (antibody, human IgG4, V domains shown)
VH: B10 VH with Q3K, Q6E, T77S, V106T
VL: B7 VL with Y31D, T41N, A59V
B12: anti-Mac-1 antibody clone 28E07-HH (antibody, human IgG4, V domains shown)
VH: QVQLVQSGAEVKKPGASVKVSCKASGYSFTDYNMNWVRQAPGQGLEWMGEINPGYGTSRYNQKFKDRVTMTRDTSISTAYMELSRLRSDDTAVYYCARADVDYGDVMDYWGQGTLVTVSS
VL: EIVLTQSPATLSLSPGERATLSCSASSSVSYMHWYQQKPGQAPRLLIYDTSKLASGIPARFSGSGSGTDFTLTISSLEPEDFAVYYCQQWSSNPPTFGQGTKLEIK
B13: anti-Mac-1 antibody clone 24G09 (antibody, human IgG4, V domains shown)
VH: EVQLVESGGGLVQPGGSLRLSCAASGFTFSDYAIGWVRQAPGKGLEWVSTIYWSGSNAYYADSVKGRFTISRDNSKNTLYLQMNSLRAEDTAVYYCARLFTLGYHGFDVWGQGTLVTVSS
VL: B4 VL with G28S, G30N, S31T, Y34N, M89Q, H91Y, G92D, G93D, W94L, L96F

What follows are binders tested against T1, human Mac-1 (integrin αMβ2, CD11b/CD18) (human, UniProt P11215 17-1152; P05107 23-769) (assay: flow cytometry, HEK293/Mac-1 cells (clone 1-4), PBS (Mock)).
Protocol: (§1) The HEK293/Mac-1 cells (clone1-4) were counted and washed twice with staining buffer (PBS containing 1% FBS, and 0.1% sodium azide). Cells were adjusted at a concentration of 1×10⁵ cells/ml in staining buffer and treated with/without 0.25 mM MnCl₂ (Sigma). Cells were treated with anti-Mac-1 antibodies and fluorescent conjugated anti-human IgG4 antibodies and incubated for 15 mins. After washing with the staining buffer, the cells were analyzed by flow cytometry. In some examples, these cells were treated with the antibodies (ICRF44, KIM127, m24, or isotype control) in the presence or absence 10 μg/ml anti-Mac-1 antibodies. The cells were then incubated at 37° C. for 30 min. After washing with the staining buffer, the cells were analyzed by flow cytometry.
(§2) TABLE II The anti-Mac-1 antibodies selectively bind to different statuses of human Mac-1. HEK293/Mac-1 cells (clone1-4) were incubated in PBS (Mock), or PBS/MnCl₂ (Mn²⁺). Binding of isotype control IgG, the CD11b specific mAb (ICRF44), the CD11b activation-sensing mAb (CBRM1/5), or the screened anti-Mac-1 antibody was detected using flow cytometry.

Binder | Mock MFI [MFI]
B1 | 4630
B2 | 28500
B3 | 24400
B4 | 39600
B5 | 9940
B6 | 15000
B7 | 36100
B8 | 64600
B9 | 43100
B10 | 53400
B11 | 55200
B12 | 1.03e+06
B13 | 29500

Each binder was assayed against T1, human Mac-1 (integrin αMβ2, CD11b/CD18) (assay: flow cytometry, HEK293/Mac-1 cells (clone 1-4), PBS/MnCl2 (Mn2+)).
Protocol: as §1, §2

Binder | Mn^2+ MFI [MFI]
B1 | 13000
B2 | 39400
B3 | 35200
B4 | 65800
B5 | 23900
B6 | 16600
B7 | 39800
B8 | 48000
B9 | 41100
B10 | 56400
B11 | 37300
B12 | 1.02e+06
B13 | 26900

What follows are binders tested against T1, human Mac-1 (integrin αMβ2, CD11b/CD18) (assay: flow cytometry, HEK293/Mac-1 cells; MFI in PBS over MFI in PBS/MnCl2).
Protocol: as §1, §2

Binder | Mock/Mn^2+ Ratio
B1 | 0.36
B2 | 0.72
B3 | 0.69
B4 | 0.6
B5 | 0.42
B6 | 0.9
B7 | 0.91
B8 | 1.35
B9 | 1.05
B10 | 0.95
B11 | 1.48
B12 | 1.01
B13 | 1.1

What follows are binders tested against T1, human Mac-1 (integrin αMβ2, CD11b/CD18) (assay: flow cytometry, HEK293/Mac-1 cells, PBS (Mock), 10 µg/ml of this antibody; binding of reporter mAb m24 read).
Protocol: as §1
(§3) TABLE III The anti-Mac-1 antibodies can serve as agonist to enhance the conformational change of Mac-1. HEK293/Mac-1 cells (clone1-4) were incubated with 10 μg/ml anti-Mac-1 antibodies under the PBS (Mock) condition. Binding of KIM127 or m24 was detected using flow cytometry.

Binder | m24 (Expression relative to IgG4)
B1 | 3.77 relative to IgG4
B2 | 16.8 relative to IgG4
B3 | 15.7 relative to IgG4
B4 | 9.33 relative to IgG4
B5 | 1.92 relative to IgG4
B6 | 1.2 relative to IgG4
B7 | 0.78 relative to IgG4
B8 | 0.88 relative to IgG4
B9 | 1 relative to IgG4
B10 | 0.63 relative to IgG4
B11 | 0.88 relative to IgG4
B12 | 0.83 relative to IgG4
B13 | 0.72 relative to IgG4

Each binder was assayed against T1, human Mac-1 (integrin αMβ2, CD11b/CD18) (assay: flow cytometry, HEK293/Mac-1 cells, PBS (Mock), 10 µg/ml of this antibody; binding of reporter mAb KIM127 read).
Protocol: as §1, §3

Binder | KIM127 (Expression relative to IgG4)
B1 | 1.13 relative to IgG4
B2 | 1.92 relative to IgG4
B3 | 1.82 relative to IgG4
B4 | 1.58 relative to IgG4
B5 | 1.05 relative to IgG4
B6 | 0.99 relative to IgG4
B7 | 1.05 relative to IgG4
B8 | 1.04 relative to IgG4
B9 | 1.11 relative to IgG4
B10 | 0.98 relative to IgG4
B11 | 1.02 relative to IgG4
B12 | 0.9 relative to IgG4
B13 | 1.01 relative to IgG4

Each binder was assayed against T1, human Mac-1 (integrin αMβ2, CD11b/CD18) (assay: flow cytometry, HEK293/Mac-1 cells, PBS/MnCl2 (Mn2+), 10 µg/ml of this antibody; binding of reporter mAb m24 read).
Protocol: as §1
(§4) TABLE IV The anti-Mac-1 antibody can serve as an antagonist to reduce the conformational change of Mac-1. HEK293/Mac-1 cells (clone1-4) were incubated with 10 μg/ml anti-Mac-1 antibodies under the PBS/MnCl₂ (Mn²⁺) condition. Binding of KIM127 or m24 was detected using flow cytometry.

Binder | m24 (Expression relative to IgG4)
B1 | 3.87 relative to IgG4
B2 | 3.5 relative to IgG4
B3 | 4.37 relative to IgG4
B4 | 2.11 relative to IgG4
B5 | 2.36 relative to IgG4
B6 | 1.38 relative to IgG4
B7 | 0.88 relative to IgG4
B8 | 0.88 relative to IgG4
B9 | 1.14 relative to IgG4
B10 | 0.85 relative to IgG4
B11 | 1.07 relative to IgG4
B12 | 0.75 relative to IgG4
B13 | 1 relative to IgG4

Each binder was assayed against T1, human Mac-1 (integrin αMβ2, CD11b/CD18) (assay: flow cytometry, HEK293/Mac-1 cells, PBS/MnCl2 (Mn2+), 10 µg/ml of this antibody; binding of reporter mAb KIM127 read).
Protocol: as §1, §4

Binder | KIM127 (Expression relative to IgG4)
B1 | 1.48 relative to IgG4
B2 | 1.74 relative to IgG4
B3 | 1.64 relative to IgG4
B4 | 1.34 relative to IgG4
B5 | 1.49 relative to IgG4
B6 | 1.05 relative to IgG4
B7 | 0.7 relative to IgG4
B8 | 0.85 relative to IgG4
B9 | 0.89 relative to IgG4
B10 | 0.65 relative to IgG4
B11 | 0.87 relative to IgG4
B12 | 0.87 relative to IgG4
B13 | 0.89 relative to IgG4
